Source: the Human Domainome abundance scans (Beltran et al. 2025)
± gives the uncertainty stated by the source.

B1: Zinc finger protein ZIC 2, residues 250 to 295; numbered along this chain, O95409 (parent)
chain: QCIKQELICKWIDPEQLSNPKKSCNKTFSTMHELVTHVSVEHVGGP

Variants of: B1
Assay: abundance fitness (aPCA) (normalised: wild type 0, dead -1); higher = more abundant; growth selection in yeast, the domain comes from the species named
Conditions: Homo sapiens

Compared with GCIKQELICKWIDPEQLSNPKKSCNKTFSTMHELVTHVSVEHVGGP, SCIKQELICKWIDPEQLSNPKKSCNKTFSTMHELVTHVSVEHVGGP is higher in abundance fitness: -0.22 ± 0.12 for the first, 0.503 ± 0.16 for the second.

VCIKQELICKWIDPEQLSNPKKSCNKTFSTMHELVTHVSVEHVGGP and WCIKQELICKWIDPEQLSNPKKSCNKTFSTMHELVTHVSVEHVGGP are within error of each other in abundance fitness: -0.349 ± 0.17 for the first, -0.321 ± 0.31 for the second.

TCIKQELICKWIDPEQLSNPKKSCNKTFSTMHELVTHVSVEHVGGP and HCIKQELICKWIDPEQLSNPKKSCNKTFSTMHELVTHVSVEHVGGP are within error of each other in abundance fitness: 0.146 ± 0.35 for the first, -0.101 ± 0.16 for the second.

First: YCIKQELICKWIDPEQLSNPKKSCNKTFSTMHELVTHVSVEHVGGP
Second: ECIKQELICKWIDPEQLSNPKKSCNKTFSTMHELVTHVSVEHVGGP
The abundance fitness of the first is lower: -0.705 ± 0.25 for the first, -0.077 ± 0.16 for the second.

MCIKQELICKWIDPEQLSNPKKSCNKTFSTMHELVTHVSVEHVGGP and NCIKQELICKWIDPEQLSNPKKSCNKTFSTMHELVTHVSVEHVGGP are within error of each other in abundance fitness: -0.131 ± 0.34 for the first, 0.294 ± 0.16 for the second.

PCIKQELICKWIDPEQLSNPKKSCNKTFSTMHELVTHVSVEHVGGP and KCIKQELICKWIDPEQLSNPKKSCNKTFSTMHELVTHVSVEHVGGP are within error of each other in abundance fitness: -0.915 ± 0.24 for the first, -0.455 ± 0.25 for the second.

LCIKQELICKWIDPEQLSNPKKSCNKTFSTMHELVTHVSVEHVGGP and QCHKQELICKWIDPEQLSNPKKSCNKTFSTMHELVTHVSVEHVGGP are within error of each other in abundance fitness: -0.356 ± 0.12 for the first, -0.518 ± 0.12 for the second.

QCDKQELICKWIDPEQLSNPKKSCNKTFSTMHELVTHVSVEHVGGP and QCPKQELICKWIDPEQLSNPKKSCNKTFSTMHELVTHVSVEHVGGP are within error of each other in abundance fitness: -0.541 ± 0.12 for the first, -0.586 ± 0.11 for the second.

Compared with QCSKQELICKWIDPEQLSNPKKSCNKTFSTMHELVTHVSVEHVGGP, QCVKQELICKWIDPEQLSNPKKSCNKTFSTMHELVTHVSVEHVGGP is higher in abundance fitness: -0.526 ± 0.095 for the first, -0.248 ± 0.089 for the second.

QCKKQELICKWIDPEQLSNPKKSCNKTFSTMHELVTHVSVEHVGGP and QCAKQELICKWIDPEQLSNPKKSCNKTFSTMHELVTHVSVEHVGGP are within error of each other in abundance fitness: -0.652 ± 0.12 for the first, -0.568 ± 0.096 for the second.

Compared with QCCKQELICKWIDPEQLSNPKKSCNKTFSTMHELVTHVSVEHVGGP, QCMKQELICKWIDPEQLSNPKKSCNKTFSTMHELVTHVSVEHVGGP is higher in abundance fitness: -0.673 ± 0.11 for the first, 0.174 ± 0.11 for the second.

Going from QCQKQELICKWIDPEQLSNPKKSCNKTFSTMHELVTHVSVEHVGGP to QCWKQELICKWIDPEQLSNPKKSCNKTFSTMHELVTHVSVEHVGGP, the abundance fitness falls from 0.224 ± 0.1 to -0.376 ± 0.1.

Going from QCLKQELICKWIDPEQLSNPKKSCNKTFSTMHELVTHVSVEHVGGP to QCRKQELICKWIDPEQLSNPKKSCNKTFSTMHELVTHVSVEHVGGP, the abundance fitness falls from -0.254 ± 0.092 to -0.61 ± 0.09.

QCNKQELICKWIDPEQLSNPKKSCNKTFSTMHELVTHVSVEHVGGP and QCFKQELICKWIDPEQLSNPKKSCNKTFSTMHELVTHVSVEHVGGP are within error of each other in abundance fitness: -0.602 ± 0.12 for the first, -0.57 ± 0.12 for the second.

Compared with QCEKQELICKWIDPEQLSNPKKSCNKTFSTMHELVTHVSVEHVGGP, QCTKQELICKWIDPEQLSNPKKSCNKTFSTMHELVTHVSVEHVGGP is higher in abundance fitness: -0.352 ± 0.1 for the first, 0.052 ± 0.1 for the second.

First: QCYKQELICKWIDPEQLSNPKKSCNKTFSTMHELVTHVSVEHVGGP
Second: QCIKQEEICKWIDPEQLSNPKKSCNKTFSTMHELVTHVSVEHVGGP
The abundance fitness of the first is lower: -0.151 ± 0.14 for the first, 0.17 ± 0.1 for the second.

First: QCIKQENICKWIDPEQLSNPKKSCNKTFSTMHELVTHVSVEHVGGP
Second: QCIKQEFICKWIDPEQLSNPKKSCNKTFSTMHELVTHVSVEHVGGP
The abundance fitness of the first is higher: 0.22 ± 0.11 for the first, -0.322 ± 0.12 for the second.

Compared with QCIKQEPICKWIDPEQLSNPKKSCNKTFSTMHELVTHVSVEHVGGP, QCIKQEDICKWIDPEQLSNPKKSCNKTFSTMHELVTHVSVEHVGGP is lower in abundance fitness: 0.194 ± 0.096 for the first, -0.375 ± 0.11 for the second.

Compared with QCIKQEAICKWIDPEQLSNPKKSCNKTFSTMHELVTHVSVEHVGGP, QCIKQECICKWIDPEQLSNPKKSCNKTFSTMHELVTHVSVEHVGGP is lower in abundance fitness: 0.097 ± 0.09 for the first, -0.196 ± 0.093 for the second.

Compared with QCIKQEGICKWIDPEQLSNPKKSCNKTFSTMHELVTHVSVEHVGGP, QCIKQEHICKWIDPEQLSNPKKSCNKTFSTMHELVTHVSVEHVGGP is higher in abundance fitness: -0.425 ± 0.088 for the first, 0.306 ± 0.11 for the second.

QCIKQEKICKWIDPEQLSNPKKSCNKTFSTMHELVTHVSVEHVGGP and QCIKQEMICKWIDPEQLSNPKKSCNKTFSTMHELVTHVSVEHVGGP are within error of each other in abundance fitness: 0.309 ± 0.099 for the first, 0.191 ± 0.099 for the second.

First: QCIKQEIICKWIDPEQLSNPKKSCNKTFSTMHELVTHVSVEHVGGP
Second: QCIFQELICKWIDPEQLSNPKKSCNKTFSTMHELVTHVSVEHVGGP
The abundance fitness of the first is higher: -0.103 ± 0.12 for the first, -0.645 ± 0.13 for the second.

Going from QCIIQELICKWIDPEQLSNPKKSCNKTFSTMHELVTHVSVEHVGGP to QCIAQELICKWIDPEQLSNPKKSCNKTFSTMHELVTHVSVEHVGGP, the abundance fitness rises from -0.734 ± 0.14 to -0.187 ± 0.1.

Going from QCIVQELICKWIDPEQLSNPKKSCNKTFSTMHELVTHVSVEHVGGP to QCILQELICKWIDPEQLSNPKKSCNKTFSTMHELVTHVSVEHVGGP, the abundance fitness rises from -0.513 ± 0.098 to -0.184 ± 0.093.

Going from QCIHQELICKWIDPEQLSNPKKSCNKTFSTMHELVTHVSVEHVGGP to QCITQELICKWIDPEQLSNPKKSCNKTFSTMHELVTHVSVEHVGGP, the abundance fitness rises from -0.816 ± 0.21 to -0.304 ± 0.13.

First: QCIYQELICKWIDPEQLSNPKKSCNKTFSTMHELVTHVSVEHVGGP
Second: QCIDQELICKWIDPEQLSNPKKSCNKTFSTMHELVTHVSVEHVGGP
The abundance fitness of the first is lower: -0.671 ± 0.15 for the first, 0.261 ± 0.12 for the second.

QCICQELICKWIDPEQLSNPKKSCNKTFSTMHELVTHVSVEHVGGP and QCIGQELICKWIDPEQLSNPKKSCNKTFSTMHELVTHVSVEHVGGP are within error of each other in abundance fitness: -0.411 ± 0.13 for the first, -0.309 ± 0.089 for the second.

QCIMQELICKWIDPEQLSNPKKSCNKTFSTMHELVTHVSVEHVGGP and QCIEQELICKWIDPEQLSNPKKSCNKTFSTMHELVTHVSVEHVGGP are within error of each other in abundance fitness: -0.105 ± 0.11 for the first, 0.088 ± 0.099 for the second.
